Test: soluble on expression in E. coli; label from the status in PepcDB or PDB records

| Sequence | soluble on expression in E. coli |
| --- | --- |
| MMTLIRITSADDSRLNRLIPLYEESFPESERRKIGQLKRMIENHAPMYFNAIECDGELSGMFVYWDMGDFYYLEHLAVFPEMRNKKIGQQVLDYVAEHLKGVRLLEVEPTEDEMTTRRVNYYRRNGYEVLDKTYVQPSYHALEDACPLWIMGSEDSPRLAEQVERIKEEVYRQQVG | not soluble |
| MMTSAFAPSEQSLVASPQDLPAVDVAIVGAGIVGLSLACALRNSGLAIALIEATPYRRENTKGQAYALHQVSRYFFEEIGVWDKLMPHVQPFEVVQLSDERFPLTVHFSPADLGTEALGYVGEHSAIAETLQSVLQSAGNVTFYCPWRVVTNEVHGDRAQLTLISGDPGEPKVAHLAARLVVAADGGKSPLRQQMGIEPKGWQYPQSCVVATLDVAHPQPVIAYERFWPTGPMGVLPLPRNRYRVVWTLPHPEAEAVAALDDRSFLATLQPYLDPQMAEITAVGDRFVFPAQFMQVNSYAADRFVVIGDAAHRCHPVGGQGLNLGLRDVWNLAQQILASPLEEIGDRRHLMHFHRQRWWQNVLTLAFTDFLNRLFSNTGWPLVAVRRCGLGLLCLLPPLKRLLLRFMAGLLLPLPGDREFPRGRLEHHHHHH | not soluble |
| MMTTSLFNNDDLNQLESKGITPEEAMRQVEALRYGFPYPNIIAPASLENGIMRLDEDDKSAYLLEWDRYLNSPNCNVVKFVPASGAASRMFKDLYNFLDADYNEPTTDAEKAFFAHLTRFAFYDSLNETCLRNAWRTVPKLIASKEYKTVVENLLYPKGLNYGNLPKGLLLFHLYGKETRTPTEEHLAEGALYERSGTRQVKVHFTVSPEHIEEFKNNIDKRQRFLEDEYCIRYEVSFSVQDSSTDTLALTPEGELFRLENGELLFRPGGHGALIRNLQETNADIVFIKNIDNVVPDFLKCDTIIYKKLIAGVLVKAREHIFNYLQLLEKPKVVHAQLMEIVDFLRYNFCIEISNIDLMEDKDLLELLRRKLDRPIRVCGMVRNQGEPGGGPFIIREADGSSSLQILESTQIDMSDPQKRAIFEQGSYFNPVDLVCSLRDYKGEPFNLESFVNPKTAFISEKSKDGRKLLALERPGLWNGAMDDWNTIFIEVPISTFAPVKTVNDLLRPEHQPCQS | soluble |
| MMVKSFTPPSSQSSVQDSGNSKLSVIEVVPENGIGALVSSSPTILRTTQAEPEILRYDPVEILAHYENKLLQVLRRTLAVLQPTLSYVFGLWLDNKRGVKVKNDRSRAIQLRELLTKLGPAYIKIGQALSTRPDLVPPVYLEELTRLQDQLPAFPNEIAYQFIEEELGAKPEEIYAEVSPEPIAAASLGQVYKGKLKTGEEVAIKVQRPDLREIITIDLYILRRLAGWVQRKVKRVRSDLVGILDELGDRIFEEMDYIHEGENAERFFELYGHIQDIYVPKIYWEYTNRRVLTMEWIKGIKLTQTSEIKELGIDARYLIEVGVQCSLRQLLEHGFFHADPHPGNLLATFDGKLAYLDFGMMSEIRPPQRYGLIEAIVHVVNRDFDSLAQDYVKLEFLSPETDLTPIIPAFGKVFANAQGASVAELNIKSITDDLSALMYEYPFRVPPYYALIIRSLVTLEGIAIYIDPNFKVLSEAYPYVSKRLLTDPADELRTSLRDLLFKMVNSGGIV | not soluble |
| MMYQDVVRSRRSVRDFMPDVEIPKEELMAIIEEAMFAPNSTNLNSWRFLIVTEKEQKEALYEVSMQQPAVKGAAAVIILLGDLTAYTVANADEISAKAVAQGTMTEEIRQGINENVSWYYDVSEEQKREWLMLDQGLVAMQLMLSAKDRGYDTVAMSGFETEAVRKLFNIEDHLVNGLIIPIGKAQTPGFETVRRDVSEVVTWLD | not soluble |
| MNANYVSKKPYIVTIACTKGGSAKSTNAANIGAFCADHGLRTLLIDTDTQPTLSSYYSLAKTAPGGIYEFLLQRDVEPSHIVSQTSIKNLDLIQSNDPSNNVSHMLRNAPDGSIRFSHLIKSINNYDVIVIDTRGTRDITVDMSVLAADILFCPILPQILSAKEFIRGTIGMYQDLQTFESFGFKLPPLKAIANGVDNTNDVKFVMQKLHTLFANTFDESKTLLDFSIPYHVAYREAVTYALPVYRHSAVEYPVMQQLCCLLLPQFKENFEKPMQRGLEHHHHHH | soluble |
| MNATPASADDLIVIGKIYSVHGVRGEVKVYSFTDPIGNLLDYKTWTLRREGSVEKQVELVSGRLQSKFLVVKLKGLDDREEARLLSGYEICVPRNLFPDLDDGEYYWYQLEGLKVIDQLGQLLGKIDHLLETGSNDVMVVKPCAGSLDDRERLLPYTEQCVLAIDMAAGEMKVEWDADFLEHHHHHH | soluble |
| MNDHTAAIAAHFDQLAPNLDRWRRRNRTYYRDLEKLHRFWIPTGSRVLQVGSGLGDLLATVEPSFGIGIDVSPQAVAIAQQRHPQLQFHCLAAEELTPEAIGNPEPFDAIILTGVLSYLTDIQVVLEQLQAFCHPRTRLILGFHNFLWQPLLTAAEKVGQRSPQPPESWLGMQDVLNLLTLTGYEPIKQGLEHHHHHH | soluble |
| MNDSIDDDFPPEPRGRCYTWPMQQYIYQESSATIPHHHLNQHNNPYHPMHPHHQLPHMQQLPQPLLNLNMTTLTSSGSSVASSIGGGAQCSPCASGSSTAATNSSQQQQTVGQMLAASVPCSSSGMTLGMSLNLSQGGGPMPAKKKRCRKKPTDQLAQKKPNPWGEESYSDIIAKALESAPDGRLKLNEIYQWFSDNIPYFGERSSPEEAAGWKNSIRHNLSLHSRFMRIQNEGAGKSSWWVINPDAKPGRNPRRTRERSNTIETTTKAQLEKSRRGAKKRIKERALMGSLHSTLNGNSIAGSIQTISHDLYDDDSMQGAFDNVPSSFRPRTQSNLSIPGSSSRVSPAIGSDIYDDLEFPSWVGESVPAIPSDIVDRTDQMRIDATTHIGGVQIKQESKPIKTEPIAPPPSYHELNSVRGSCAQNPLLRNPIVPSTNFKPMPLPGAYGNYQNGGITPINWLSTSNSSPLPGIQSCGIVAAQHTVASSSALPIDLENLTLPDQPLMDTMDVDALIRHELSQAGGQHIHFDL | not soluble |
| MNDSSVIYRAIVTSKFRTEKMLNFYNSIGSGPDKNTIFITFGRSEPWSSNENEVGFAPPYPTDSVLGVTDMWTHMMGTVKVLPSMLDAVIPRRDWGDTRYPDPYTFRINDIVVCNSAPYNATESGAGWLVYRCLDVPDTGMCSIASLTDKDECLKLGGKWTPSARSMTPPEGRGDAEGTIEPGDGYVWEYLFEIPPDVSINRCTNEYIVVPWPEELKEDPTRWGYEDNLTWQQDDFGLIYRVKANTIRFKAYLDSVYFPEAALPGNKGFRQISIITNPLEAKAHPNDPNVKAEKDYYDPEDLMRHSGEMIYMENRPPIIMAMDQTEEINILFTF | soluble |
| MNDVDVLVVGAGALGLACAARLAEAGHGVLVAERERLVGSHTSSRNSEVIHAGLYYPPGSLKADLCLEGRERLYAWCARHGVGHRRIGKLLVAVEENERERLQALAANARACGVDDLMPLDGTTLRALEPQVRGVAALLSPSTGIIDSHAYLQSLQAVAERHGAQLALDTRVDRLERHAGGWRAEGQSVGEAFRLRAGWVVNAGGLFAQALAQRTEGLDPRLVPALHLCQGRYFSYSGRSPFRHLVYPMPEARTAGLGIHATLDLGGQLRFGPDVNYVDNLDYRVDESLRPAFAQVISRYFPGIDPRRLAAGYAGIRPKLGGPGEPAADFIIQTPAEHGLPGLVNLFGIESPGLTASLALAERVARALLEHHHHHH | not soluble |
| MNDYSTTRDRVEHYFDRTATHTWERLTSSAPVSRIRQTVREGRDTMRAKMLWRLPKDLTGLRVLDAGCGAGQMTAELAARGAQVMAVDISPQLVEIARKRLPPEHQDRVTFASGDMLADDLGRFDYVVAMDSLIYYTDADIAAALDRLGARTRHSVVFTVAPRTPFLMAFWTMGKLFPRSDRSPVMIPHPFQPLNEATGGRLVKVGRVSRGFYISECLEFRPLEHHHHHH | not soluble |
| MNEFEIGLMSYLGREKLEKLGKVKVGIAGAGGLGSNCALHLVRSGFKNLKIVDFDVVEPSNLNRQFFFLDQLGRPKVLALKENLARINPDVMIEAIQQKVDRNNAKQLFDDCDAVVEAFDKVECKTMMAEAFASSGKFFVCASGLAGWGNSDEIRIRKVHDRFYIVGDFVTGVKEGIPPISPRVNIAAAKQADLILSFFLDDADNTVNVNCQEGLEHHHHHH | soluble |
| MNEFSILCRVLGSLFYRQPQDPLLVPLFTLIREGKLAANWPLEQDDMLARLQKSCDITQISTDYNALFVGEECAVAPYRSAWVEGAEESEVRAFLTSRGMPLADTPADHIGTLLLAASWLEDQSAEDESEALETLFADYLLPWCNTFLGKVEAHAVTPFWRTLAPLTRDAIGAMWDELQEEDEE | not soluble |
| MNEKHPGPLVVSGKLSDGERMKSESNFLRGTIAEDLNNGLTGGFSGDNFLLIRFHGMYQQDDRDIRAERAEQKLEPRHAMMLRCRLPGGIITPQQWLGIDKFAADNTLYGSIRITNRQTFQFHGILKGNVKPAHQLLNELGLDALATANDVNRNVLCTSNPVESALHQEAYEWAKKISEHLLPRTRAYAEIWLDAEKVATTDEEPILGATYLPRKFKTTVVIPPQNDVDLHANDLNFVAVADKGKLIGFNVLVGGGLSIAHGDKNTYPRKASEFGYIPLKHTLAIAEAVVTTQRDWGNRTDRKNAKTKYTLERVGVETFKAEVEKRAGVSFSAIKPYQFIGRGDRIGWVKGVDKKWHLTLFVENGRLLDYPGRSLKTGVAEIAKIHQGDFRLTANQNLIVAGVPEKDKARIEALAREHGLMDDNVTSQRENSMACVSFPTCPLAMAEAERFLPEFVTRVEGILQQHGLADEHIVLRVTGCPNGCGRALLAEVGLVGKAVGRYNLHLGGNREGTRIPRMYRENITADEILLITDQLVGRWAKERHVDEGFGDFVIRAGVIAPVIDSARDFYDVQEAM | not soluble |
| MNELQFQQAAGISAGLSARWFPHIDAAMSEFGITAPLDQAMFIAQTGHESAGFTVLRESFNYSVEALKKTFGKRLTPYQCEMLGRIDGRQVAHQPQIANLVYGGRMGNKDAGDGWKYRGRGLIQITGLENYTRCGVALKLDLVANPGQLELERHAARSAAWFFVTKGCLKYSGDLVRVTQIINGGQNGFGDRRERFEKAKSVLV | not soluble |
| MNEYKKEIKISVRNLVEFVLRTGDIDSSFTGSSRAVEGTRLHKKIQKTQGKEYSPEVFLKTTVEFDDFFLTVEGRADGVINEDGCFIIDEIKTTTAPLELIDEFYNPLHWAQAKCYAYIHALNENLEKIKIRLTYCHLETEEIKYLVSEFDFAELSRFFEELVEKYYVWAKLACDWQVKRDCSIKVLEFPFEKYRKGQRKLAVAVYKTVTEGKKLYVKAPTGIGKTISTLFPAVKAIGEGHASKIFYLTAKTVTGGVAKEAFAKMRQKGLLFKTVTLTAKEKICFMEKAVCKPEKCEYAKGHFDRVNEAIMDILTNEDEIKREVIEEYAKAHRVCPFELALDLTIWADAVICDYNYVFDPRVYLKRFFSDAGGDYIFLVDEAHNLVDRAREMFSAQLSKKSFLELKKAMKEESPKISKTLQKLNTFMLGMKKLCGDNDYFVSKEEQSEIYLLLRRLIGECEEYLTDRAKNGIENEDLLQLYFDALMYVRIAEFYDDRYVTFVEKSDNDVRIKLFCIDPSHLLSEALKRGKAAVFFSATLLPLSYFKEVLGGGPDDYTMCLDSPFEVNNRCLMIADRISTRYQDRGKSCDEVVQCIKSIVCAKKGNYIAFFPSYQYMNMIYELFEKECGDIKLYVQSSSMTEKEREDFLERFKADPQETVLGFCVLGGIFSEGIDLRDDRLIGAIIVGVGLPQICIERDIIRDYYQNKNRLGFEYSYMYPGMNKVMQAAGRVIRSENDKGVILLIDDRFTNPSYLALFPNEWFPYIRVTGNNISEHVKKFWSRHGA | soluble |
| MNFLKKEPFKIFSMIYLLLDTITNRAGTERAVINLANNLHANGHRVSLVSVCTKEGEPSFQVEKGIEVHHLGIRLYGNALARKTVYFKAYRRIKALYKKREPVLLIGTNIFINTILSQISNRGRIFTIGCEHISYDIARPITKRIRGFLYSGLDAVVALTKRDQQSFEAILRGRSKAYVIPNQVSFTTVQRDATTHKQMLAIGRLTYQKGFEFMIEDASRVLRERPDWKLIIVGDGENESMLRKEIASRNMESQIEIHPSTPEIRKYYESSAIYLMTSRFEGLPMVLLEAEAYALPIISYDCPTGPRELIENGRNGFLVPMEAHEDFADKLRLLMDDETLRKKMGQESELMVKSYSPANIYECWKKLFVEIGYMN | soluble |
